Data reported in US20250361314A1 (SHANGHAI HUAOTA BIOPHARMACEUTICAL, published 2025).

T1: Human CD73 on CHOK1-huCD73-3F4 cells overexpressing CD73 (human, UniProt P21589 27-549)
T1 sequence (looked up): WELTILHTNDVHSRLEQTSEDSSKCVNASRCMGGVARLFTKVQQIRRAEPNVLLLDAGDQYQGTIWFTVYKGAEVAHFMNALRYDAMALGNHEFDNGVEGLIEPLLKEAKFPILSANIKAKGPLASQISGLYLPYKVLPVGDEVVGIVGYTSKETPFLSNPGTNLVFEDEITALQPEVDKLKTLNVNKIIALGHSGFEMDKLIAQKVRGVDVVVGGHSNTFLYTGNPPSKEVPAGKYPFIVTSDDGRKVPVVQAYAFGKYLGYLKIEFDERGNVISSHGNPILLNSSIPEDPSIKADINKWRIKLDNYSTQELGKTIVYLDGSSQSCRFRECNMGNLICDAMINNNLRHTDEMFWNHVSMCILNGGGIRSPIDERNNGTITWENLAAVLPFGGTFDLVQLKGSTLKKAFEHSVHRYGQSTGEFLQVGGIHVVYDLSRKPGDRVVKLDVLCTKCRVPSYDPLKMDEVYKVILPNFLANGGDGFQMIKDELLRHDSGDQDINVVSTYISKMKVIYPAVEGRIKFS

T2: Human CD73 antigen (human, UniProt P21589 27-547, limits assumed)
T2 construct: Antigen used as analyte in SPR; also called NT5E
T2 sequence (looked up): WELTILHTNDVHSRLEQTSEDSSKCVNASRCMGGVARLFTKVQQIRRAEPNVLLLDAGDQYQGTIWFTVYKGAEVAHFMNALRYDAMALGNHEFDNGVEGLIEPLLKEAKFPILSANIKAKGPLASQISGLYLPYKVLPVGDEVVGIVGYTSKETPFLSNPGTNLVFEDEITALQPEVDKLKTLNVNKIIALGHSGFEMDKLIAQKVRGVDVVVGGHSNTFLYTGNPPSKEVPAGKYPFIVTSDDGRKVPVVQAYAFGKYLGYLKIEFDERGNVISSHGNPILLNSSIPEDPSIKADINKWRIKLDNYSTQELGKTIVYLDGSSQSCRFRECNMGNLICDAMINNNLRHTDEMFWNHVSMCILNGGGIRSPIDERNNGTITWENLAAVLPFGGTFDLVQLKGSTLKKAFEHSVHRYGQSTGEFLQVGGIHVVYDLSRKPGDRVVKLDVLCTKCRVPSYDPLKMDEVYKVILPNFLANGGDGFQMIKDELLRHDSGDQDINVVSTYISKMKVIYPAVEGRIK

T3: Human CD39 antigen (human, UniProt P49961 38-478)
T3 construct: Antigen used as analyte in SPR; also called ENTPD1
T3 sequence (looked up): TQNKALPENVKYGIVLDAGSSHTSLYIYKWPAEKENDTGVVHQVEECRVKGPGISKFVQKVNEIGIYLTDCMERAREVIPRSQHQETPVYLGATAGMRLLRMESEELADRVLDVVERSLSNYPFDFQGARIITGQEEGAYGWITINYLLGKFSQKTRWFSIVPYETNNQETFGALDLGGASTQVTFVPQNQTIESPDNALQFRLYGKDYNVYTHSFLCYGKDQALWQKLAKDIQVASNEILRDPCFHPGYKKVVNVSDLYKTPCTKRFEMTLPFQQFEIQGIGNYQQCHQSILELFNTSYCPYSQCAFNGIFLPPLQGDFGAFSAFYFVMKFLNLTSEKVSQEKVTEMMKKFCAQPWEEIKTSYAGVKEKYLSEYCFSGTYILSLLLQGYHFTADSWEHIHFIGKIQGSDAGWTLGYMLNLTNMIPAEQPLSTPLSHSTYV

T4: Human CD39 on CHOK1-huCD39-10B6 cells overexpressing CD39 (human, UniProt P49961 1-510)
T4 sequence (looked up): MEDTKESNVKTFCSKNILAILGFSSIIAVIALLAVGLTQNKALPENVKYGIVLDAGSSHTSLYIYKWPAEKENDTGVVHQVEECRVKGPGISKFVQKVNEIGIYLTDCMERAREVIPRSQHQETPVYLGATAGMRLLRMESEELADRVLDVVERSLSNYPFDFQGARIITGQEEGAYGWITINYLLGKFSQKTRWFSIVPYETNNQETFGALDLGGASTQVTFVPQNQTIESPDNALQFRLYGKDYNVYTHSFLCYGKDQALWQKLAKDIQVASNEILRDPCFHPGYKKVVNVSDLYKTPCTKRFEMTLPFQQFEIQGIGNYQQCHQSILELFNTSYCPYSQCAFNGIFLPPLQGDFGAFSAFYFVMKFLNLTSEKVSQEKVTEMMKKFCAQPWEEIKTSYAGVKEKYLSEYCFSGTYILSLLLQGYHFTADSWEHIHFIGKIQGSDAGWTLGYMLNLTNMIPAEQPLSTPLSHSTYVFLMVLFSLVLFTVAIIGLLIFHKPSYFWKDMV


How the values were obtained:
[1] = molecular target: T1, Human CD73 on CHOK1-huCD73-3F4 cells …; experiment: cell-based or functional assay
Human CD73 antigen = molecular target: T2, Human CD73 antigen; experiment: SPR (Biacore 8K), antibody captured on anti-human capture CM5 chip, antigen as analyte, 1:1 model
Description: (§1) An Anti-Human Capture-CM5 chip (GE, #BR-1005-30) was prepared using coupling methods of a Human Antibody Capture Kit (GE, #BR-1008-39) and an amino coupling kit (GE, BR-1000-50). The chip was equilibrated at room temperature for 20-30 mins and loaded into a Biacore 8K instrument. The antigen and antibody were diluted to an experimental working concentration using an equilibration buffer. The antigens were diluted with the equilibrium buffer to 50 nM, and then diluted three-fold for seven concentration gradients, and two zero concentrations (i.e., the equilibrium buffer) and one repeat concentration (typically the lowest concentration repeat) were set. Experimental analysis was performed on 10 antigen concentrations (2 zero concentrations, 7 gradient concentrations, and 1 repeated concentration) in a cyclic manner according to an order of antibody, antigen, and regeneration. The antigen injection flow rate was 30 μL/min, the binding time was 120 s, and the dissociation time was 600 s. Following the analysis, the data was analyzed using the corresponding analysis program to confirm that there was no obvious reference binding. Using Kinetics and a 1:1 binding model, the data was fit to obtain the kinetic related parameters Ka, Kd, and KD values of the bispecific antibodies and parental control antibodies.

[2] = molecular target: soluble recombinant protein CD73; experiment: cell-based or functional assay
Sequence of soluble recombinant protein CD73 (P21589 whole entry): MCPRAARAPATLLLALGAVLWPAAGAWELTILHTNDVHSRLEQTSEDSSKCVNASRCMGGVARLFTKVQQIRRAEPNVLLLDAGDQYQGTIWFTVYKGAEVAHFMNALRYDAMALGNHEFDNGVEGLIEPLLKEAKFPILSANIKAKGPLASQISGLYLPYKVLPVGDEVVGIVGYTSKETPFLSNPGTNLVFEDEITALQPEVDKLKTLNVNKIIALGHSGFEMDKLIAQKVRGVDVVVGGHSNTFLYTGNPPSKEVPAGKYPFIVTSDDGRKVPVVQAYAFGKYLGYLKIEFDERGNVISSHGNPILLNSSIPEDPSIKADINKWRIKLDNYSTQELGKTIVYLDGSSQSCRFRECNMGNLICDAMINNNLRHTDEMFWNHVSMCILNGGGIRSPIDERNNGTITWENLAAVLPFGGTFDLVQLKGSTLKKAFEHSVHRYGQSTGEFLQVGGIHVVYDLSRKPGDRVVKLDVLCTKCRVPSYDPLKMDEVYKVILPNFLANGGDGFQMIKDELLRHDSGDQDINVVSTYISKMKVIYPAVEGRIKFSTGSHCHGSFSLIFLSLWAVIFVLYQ

Human CD39 antigen = molecular target: T3, Human CD39 antigen; experiment: SPR (Biacore 8K), antibody captured on anti-human capture CM5 chip, antigen as analyte, 1:1 model
Description: as §1

[3] = molecular target: T4, Human CD39 on CHOK1-huCD39-10B6 cells …; experiment: cell-based or functional assay

| EC50 (µg/mL), inhibition of enzyme activity of membrane CD73 on CHOK1-huCD73-3F4 cells (CellTiter Glo) [1] [µg/mL] | Kd (Human CD73 antigen) [nM] | koff (Human CD73 antigen) [s⁻¹] | kon (Human CD73 antigen) [M⁻¹ s⁻¹] | EC50 (µg/mL), inhibition of enzyme activity of soluble CD73 protein (CellTiter Glo) [2] [µg/mL] | Kd (Human CD39 antigen) [nM] | koff (Human CD39 antigen) [s⁻¹] | kon (Human CD39 antigen) [M⁻¹ s⁻¹] | EC50 (µg/mL), inhibition of CD39 ATPase activity on CHOK1-huCD39-10B6 cells (CellTiter Glo) [3] [µg/mL] | Binder |
| --- | --- | --- | --- | --- | --- | --- | --- | --- | --- |
| 0.32 | 0.184 | 0.000182 | 988000 | – | – | – | – | – | 900725 (CD73 parental monoclonal antibody corresponding to 700035) (antibody, human IgG1, kappa, L234A L235A, V domains shown) VH: QVQLVQSGAEVKKPGASVKLSCKASGYTFTSYWIHWVRQAPGQGLEWIGMIHPNSGSTYYNEKFKGRATLTVDKSTSTAYMELSSLRSEDTAVYYCARYYGSDYEWYFDVWGQGTTVTVSS VL: DIQMTQSPSSMSASVGDRVTITCKASQNVRTAVVWYQQKPGKAPKALIYLASNRHTGVPDRFSGSGSGTDFTLTISSLQPEDFATYFCLQHWNYPYTFGQGTKLEIKR |
| – | 0.382 | 0.000215 | 561000 | 1.74 | – | – | – | – | 900698 (CD73 parental monoclonal antibody corresponding to 700038) (antibody, human IgG1, kappa, L234A L235A, V domains shown) VH: QVQLVESGGGLVKPGGSLRLSCAASGFTFSKYAMSWIRQAPGKGLEWVAEISSGGGYINYADSVKGRFTISRDNAKNSLYLQMNSLRAEDTAVYYCARAIYYYGSSYNYYAMDYWGQGTTVTVSS VL: DIQMTQSPSSLSASVGDRVTITCRASQDVGTAEAWYQQKPGKAPKLLIYWASTRHTGVPSRFSGSGSGTDFTLTISSLQPEDFATYYCQQYSSYPLTFGQGTKLEIKR |
| – | – | – | – | – | 0.14 | 0.000102 | 730000 | 0.558 | 700053 (CD39 nanobody) (VHH, In the SPR it was captured on an anti-human antibody capture chip, so the tested construct may carry a human Fc) VHH: QVQLVESGGGLVQPGGSLRLSCAASGSISSIAAMGWYRQAPGKERELVAAITSGGNTNLADSTKGRFTISRDNTKNTVYLQMNSLKPEDTAVYYCNAWGEDDSSWFGTDLCDYWGQGTQVTVSS |
